Drawing on US20240409645A1, this text covers P.E. binding ELISA OD for 33 molecules.

Sequences and labels used below:
T1: mouse IL-2Rβ (mouse) (UniProt P16297)
T1 sequence (looked up): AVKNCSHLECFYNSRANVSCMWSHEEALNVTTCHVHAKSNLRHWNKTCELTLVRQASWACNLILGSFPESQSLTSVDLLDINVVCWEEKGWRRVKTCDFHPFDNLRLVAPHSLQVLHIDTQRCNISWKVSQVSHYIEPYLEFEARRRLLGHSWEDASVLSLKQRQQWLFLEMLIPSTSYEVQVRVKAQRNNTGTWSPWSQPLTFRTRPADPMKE

B1: FJ1427_P035MP02D07 (VHH)
VHH: EVQLVESGGGLVQAGGSLRLSCAASGRSLSTTEMGWFRQAPGKEREFVAAITWSGRGTMYAESVEGRFAVSRENAKNTVYLQMNSLKPEDTAIYYCAAARRGRAAVRSEGGYDFWGQGTQVTVSS
B2: FJ1427_P035MP02E05 (VHH)
VHH: EVQLVESGGGLVQIGGSLRLSCAASGRTFSSITMAYFRQVPGKEHEWVAGINFSGTRTFYADSVKGRFLISRDDAKSTMYLQMNSLKPEDTAVYYCAASPRGFYGPGNALYDYWGQGTQVTVSS
B3: FJ1427_P035MP02C07 (VHH)
VHH: QVQLVESGGGLVQAGGSLRLSCAASGRTFSINTMGWFRQAPGKEREFVAAISRSGDSTVYVDSVKGRFTISRDNAKNTVYLQMNTLKPEDTAVYYCATTVAVGWTTRWSTIDFDSWGQGTQVTVSS
B4: FJ1427_P035MP02F08 (VHH)
VHH: QVQLVESGGGLVQAGGSLRLSCAASGSIFSLNTMGWFRQAPGKEREFVAAISRSGGSATYGDSVKGRFTISTNNAKTTVYLQMNSLKPDDTAVYSCAASAAVGWTTRWSTIDFDSWGQGTQVTVSS
B5: FJ1427_P035MP02E03 (VHH)
VHH: EVQLVESGGGSVQTGGSLRLSCVVSGSHFISDVMGWYRQVPGKQRELVADMADGGSVKYGDSVKGRFTILRDSVKNTVTLQMSSLNPEDTGVYYCKAGLWITGRHFDYWGQGTQVTVTS
B6: FJ1427 P035MP02H05 (VHH)
VHH: B5 VHH with V57A, F106S
B7: FJ1427 P035MP02A04 (VHH)
VHH: EVQLVESGGGLVQTGGSLRLSCTASGSQFINDVMGWYRQVPGKQRELVADMDDTGSTKYADSVNGRFTILRDSVKNTAYLQMSNLKPEDTGVYYCKAGLWIKGRHSDYWGQGTQVTVSS
B8: FJ1427_P035MP02G04 (VHH)
VHH: B7 VHH with E1Q, T14A, T23A, N64K, S106F
B9: FJ1427 P035MP02F04 (VHH)
VHH: B7 VHH with T23A, N64K, S106F
B10: FJ1427_P035MP02A05 (VHH)
VHH: B7 VHH with T23A, N64K
B11: FJ1427 P035MP02G05 (VHH)
VHH: B7 VHH with T23A, M34T, N64K
B12: FJ1427_P035MP02D06 (VHH)
VHH: B7 VHH with T23A, N64K
B13: FJ1427_P035MP02B05 (VHH)
VHH: B7 VHH with T23A, N64K, S106F
B14: FJ1427_P035MP02G03 (VHH)
VHH: QVQLVESGGGLVQPGGSLGLSCAASGFTFSNYAMSWVRQAPGKGLEWVASITGFGRGTDYADSVKGRFTVSRDNAKNTLYLQMNSLKPEDTAVYYCAKYSSSTYYPPTPARGRDYRGQGTQVTVSS
B15: FJ1427_P035MP02B06 (VHH)
VHH: B14 VHH with G16E, A49S, F54A, V70I, S102G, A110V, R113T
B16: FJ1427 P035MP02D05 (VHH)
VHH: B14 VHH with G16E, A49S, F54A, V70I, S102G, A110V, R113T
B17: FJ1427 P035MP02C06 (VHH)
VHH: B14 VHH with V2L, G19E, A49S, V70I, K98R
B18: FJ1427_P035MP02C04 (VHH)
VHH: B14 VHH with G19E, A49S, V70I, A75D, K98R
B19: FJ1427_P035MP02F03 (VHH)
VHH: EVQLVESGGGLVQAGGSLRLSCAASGGTFSSYAMGWFRQAPGKEREFVAATTRGGGRTMYAVSTEGRFTCSRDNAKNTVYLLMNSLKPEDTAVYYCAAMTSYYSGTYYPDSSDFDIWGQGTQVTVSS
B20: FJ1427_P035MP02E04 (VHH)
VHH: B19 VHH with L82Q, E89K, V93I
B21: FJ1427 P035MP02H04 (VHH)
VHH: B19 VHH with E1Q, G16D, A24T, G27L, M34L, E44K, A75D, E89K
B22: FJ1427_P035MP02A06 (VHH)
VHH: B19 VHH with E1Q, V5Q, A75D, E89K
B23: FJ1427_P035MP02B04 (VHH)
VHH: B19 VHH with R19G, L82Q, E89K, V93I
B24: FJ1427 P035MP02C08 (VHH)
VHH: EVQLVESGGGLVQAGGSLRLSCAASGSTFSRQPMYWFRQAPGKEREFVAAITWSGRGTLYADSVEGRFTISRDNAKNTVYLQMNSLRPDDTAAYYCAAGPYGDAAYRHGRIDSWGQGTQVTVSS
B25: FJ1427_P035MP02D04 (VHH)
VHH: QVQLVESGGGLVQTGGSLRLSCAVSGSRFISDVMGWYRQVPGKQRELVADMADGGSAKYADSVKGRFSILRDSVKNTVYLQMSSLKPEDTGIYYCKAGLWIAGRHSDYWGQGTQVTVSS
B26: FJ1427_P035MP02F05 (VHH)
VHH: B25 VHH with Q1E
B27: FJ1427 P035MP02C05 (VHH)
VHH: B25 VHH
B28: FJ1427 P035MP02B07 (VHH)
VHH: EVQLVESGGGLVEAGGSLRLSCAASGRAFNNFPMGWFRQAPGKEREFVAAITWISGSTLYADSVKGRFTISRDKSKNTVYLQMSGLKPEDTALYYCAAALKTITRGQHDYTYWGQGTQVTVSS
B29: FJ1427_P035MP02F06 (VHH)
VHH: EVQLVESGGGLVQTGGSLRLSCAASGSRFISDFMGWYRQVPGKQRELVADMADGGSARYGDSVKGRFTILRESGNATAYLQMSSLKPEDTGVYYCKAGLWIAGRHFDYWGQGTQVTVSS
B30: FJ1427_P035MP02A08 (VHH)
VHH: EVQLVESGGGLVQAGGSLRLSCTVSGDVFVRYTMAWFRQAPGKEREFVATVTDSGRTTEYVDSVKGRFTVSRDNAKNTVYLQMNNLKPEDTAVYYCAANTDYFRIRSLDANTWGQGTQVTVSS
B31: FJ1427_P035MP02E08 (VHH)
VHH: B30 VHH with T23V, T50V, R104Q, L108V, A110N, T112A
B32: FJ1427 P035MP02D08 (VHH)
VHH: B30 VHH with T23V, A49T, T50S, V51I
B33: FJ1427 P035MP02G08 (VHH)
VHH: B30 VHH with E1Q, T50S, D62H, K65R

Where a chain is given by its changes, count along the chain named.

This assay has as its target T1, mouse IL-2Rβ (mouse). Briefly: P.E. ELISA, coated protein.
Regarding B1, the P.E. binding ELISA OD came out at 0.046 OD450 nm.

Molecule B2 gave a P.E. binding ELISA OD of 0.048 OD450 nm. To B3 belongs 0.046 OD450 nm; to B4, 0.048 OD450 nm. B5: the P.E. binding ELISA OD came to 0.049 OD450 nm. With B6, the P.E. binding ELISA OD is 0.049 OD450 nm. For B7, the P.E. binding ELISA OD stood at 0.048 OD450 nm. The molecule B8 came in with a P.E. binding ELISA OD of 0.048 OD450 nm.

On to B9, for which the P.E. binding ELISA OD amounted to 0.048 OD450 nm. Turning to B10, the P.E. binding ELISA OD was found to be 0.047 OD450 nm. B11 returned a P.E. binding ELISA OD of 0.048 OD450 nm.

In the case of B12, the P.E. binding ELISA OD amounted to 0.047 OD450 nm. B13 gave a P.E. binding ELISA OD of 0.048 OD450 nm.

In turn, B14 had a P.E. binding ELISA OD of 0.049 OD450 nm. For B15 the value was 0.047 OD450 nm.

With B16, the P.E. binding ELISA OD came to 0.049 OD450 nm. The molecule B17 had a P.E. binding ELISA OD of 0.047 OD450 nm. For B18 the value was 0.047 OD450 nm; for B19, 0.048 OD450 nm; for B20, 0.048 OD450 nm. B21 yielded a P.E. binding ELISA OD of 0.05 OD450 nm. For B22 the value was 0.048 OD450 nm; for B23, 0.047 OD450 nm; for B24, 0.047 OD450 nm. In the case of B25, the P.E. binding ELISA OD is 0.048 OD450 nm. With B26, the P.E. binding ELISA OD was 0.048 OD450 nm.

Take B27: the P.E. binding ELISA OD turned out to be 0.047 OD450 nm. B28 returned a P.E. binding ELISA OD of 0.046 OD450 nm. In the case of B29, the P.E. binding ELISA OD stood at 0.047 OD450 nm. For B30 the value was 0.069 OD450 nm; for B31, 0.058 OD450 nm. In the case of B32, the P.E. binding ELISA OD was determined as 0.048 OD450 nm. For B33 the value was 0.055 OD450 nm.
